From article doi:10.1101/2024.03.15.585299, “Biochemical analysis of the endoribonuclease activity of the human mitochondrial topoisomerase 1”

T1: hTop1mt-Y559F (catalytically inactive) (Homo sapiens, UniProt Q969P6 51-601, Y559F)
T1 sequence: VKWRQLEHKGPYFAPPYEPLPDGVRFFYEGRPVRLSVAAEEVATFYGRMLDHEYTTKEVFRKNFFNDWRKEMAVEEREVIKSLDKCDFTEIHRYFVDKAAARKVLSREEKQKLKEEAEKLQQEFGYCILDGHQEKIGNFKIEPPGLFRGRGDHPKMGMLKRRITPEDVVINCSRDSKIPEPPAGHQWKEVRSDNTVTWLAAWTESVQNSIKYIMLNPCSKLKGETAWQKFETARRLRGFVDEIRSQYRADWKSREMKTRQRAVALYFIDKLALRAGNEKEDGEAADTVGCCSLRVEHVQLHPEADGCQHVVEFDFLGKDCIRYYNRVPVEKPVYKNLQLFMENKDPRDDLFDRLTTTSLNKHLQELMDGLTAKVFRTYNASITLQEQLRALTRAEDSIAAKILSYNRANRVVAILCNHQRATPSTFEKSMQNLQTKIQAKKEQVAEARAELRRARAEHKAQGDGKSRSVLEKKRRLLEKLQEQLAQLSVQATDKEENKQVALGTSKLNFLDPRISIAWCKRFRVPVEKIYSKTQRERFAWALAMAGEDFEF

T2: scTop1 catalytically inactive (Y272F as printed) (Saccharomyces cerevisiae, UniProt P04786 1-769, Y727F)
T2 sequence: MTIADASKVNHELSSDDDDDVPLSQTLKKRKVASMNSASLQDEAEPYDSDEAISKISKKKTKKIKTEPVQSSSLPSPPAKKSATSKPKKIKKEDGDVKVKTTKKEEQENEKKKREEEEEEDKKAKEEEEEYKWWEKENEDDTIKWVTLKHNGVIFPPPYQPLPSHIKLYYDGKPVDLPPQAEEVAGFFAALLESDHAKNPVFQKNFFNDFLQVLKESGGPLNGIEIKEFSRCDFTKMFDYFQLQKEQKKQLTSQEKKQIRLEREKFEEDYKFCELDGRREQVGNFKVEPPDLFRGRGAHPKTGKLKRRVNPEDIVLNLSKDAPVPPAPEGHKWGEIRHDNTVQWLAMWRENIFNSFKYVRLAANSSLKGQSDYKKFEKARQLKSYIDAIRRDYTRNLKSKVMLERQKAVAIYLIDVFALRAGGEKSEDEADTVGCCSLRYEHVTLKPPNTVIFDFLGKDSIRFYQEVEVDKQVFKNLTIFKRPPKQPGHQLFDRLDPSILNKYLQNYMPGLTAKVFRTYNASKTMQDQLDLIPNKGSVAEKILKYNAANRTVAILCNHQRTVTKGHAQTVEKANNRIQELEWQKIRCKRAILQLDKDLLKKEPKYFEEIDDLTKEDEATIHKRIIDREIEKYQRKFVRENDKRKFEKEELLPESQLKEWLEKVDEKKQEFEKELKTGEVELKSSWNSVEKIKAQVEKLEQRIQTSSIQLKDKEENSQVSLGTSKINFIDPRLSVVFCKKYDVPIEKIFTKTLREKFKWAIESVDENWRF


How the values were obtained:
Assay in all cases: fluorescence anisotropy; 20 mM Tris pH 8, 66 mM NaCl, 1 mM DTT, 10% glycerol, 25 C, 10 min; 0.5 nM dsDNA, 0-60 nM Top1
Details in all cases: protein: recombinant; tags: GST removed by 3C protease; label: 5'-FAM top strand; blunt
[1] = target: T1, hTop1mt-Y559F (catalytically inactive)
[2] = target: T2, scTop1 catalytically inactive (Y272F as …)
[3] = target: hTop1-Y723F (catalytically inactive) (Homo sapiens, UniProt P11387 1-765, Y723F)
Sequence of hTop1-Y723F (catalytically inactive) (P11387 whole entry Y723F): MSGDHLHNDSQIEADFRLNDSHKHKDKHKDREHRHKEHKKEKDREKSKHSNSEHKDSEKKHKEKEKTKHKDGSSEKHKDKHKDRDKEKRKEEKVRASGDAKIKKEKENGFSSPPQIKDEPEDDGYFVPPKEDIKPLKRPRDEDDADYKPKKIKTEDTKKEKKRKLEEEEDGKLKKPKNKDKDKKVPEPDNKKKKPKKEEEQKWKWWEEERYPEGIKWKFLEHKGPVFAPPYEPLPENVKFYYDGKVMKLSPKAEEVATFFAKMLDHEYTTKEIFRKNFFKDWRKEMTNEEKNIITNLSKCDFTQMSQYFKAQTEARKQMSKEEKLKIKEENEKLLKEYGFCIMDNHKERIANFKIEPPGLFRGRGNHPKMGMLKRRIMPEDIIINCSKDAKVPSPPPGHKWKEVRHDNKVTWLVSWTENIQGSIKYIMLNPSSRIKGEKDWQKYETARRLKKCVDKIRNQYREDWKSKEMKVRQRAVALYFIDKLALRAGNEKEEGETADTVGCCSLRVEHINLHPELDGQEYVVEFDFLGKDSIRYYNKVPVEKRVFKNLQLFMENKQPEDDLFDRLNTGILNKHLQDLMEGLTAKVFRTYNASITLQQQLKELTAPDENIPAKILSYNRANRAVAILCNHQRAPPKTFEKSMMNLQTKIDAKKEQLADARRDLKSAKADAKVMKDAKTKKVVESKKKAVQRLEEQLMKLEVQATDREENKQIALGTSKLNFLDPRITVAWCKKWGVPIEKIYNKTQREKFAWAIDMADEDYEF

| Binder | Kd [1] | Kd [2] | Kd [3] |
| --- | --- | --- | --- |
| Substrate A (dsDNA) DNA 1: AGCGTTGAAGATATGTGGCAAAACCTTTGT DNA 2: ACAAAGGTTTTGCCACATATCTTCAACGCT | 3.5 nM | 3.55 nM | 1.16 nM |
| Substrate C (dsDNA) DNA 1: ACTCGTCACGAGAGAGATGCCACGGTATTTCAAA DNA 2: TTTGAAATACCGTGGCATCTCTCTCGTGACGAGT | 4.57 nM | 9.47 nM | 1.26 nM |
| Substrate D (dsDNA, single ribonucleotide rG at position 16 of top strand (2 nt upstream of cleavage site), rest DNA) DNA 1: ACTCGTCACGAGAGAGATGCCACGGTATTTCAAA DNA 2: TTTGAAATACCGTGGCATCTCTCTCGTGACGAGT | 2.29 nM | 8.75 nM | 1.36 nM |
